Assay results as given in patent publication US20250283886.

Legend:
[1] = tested on: […]{LYS(N3)} peptide-linker conjugate, PEG4 linker (Table 6 entry 11)
[2] = tested on: […]{LYS(N3)} peptide-linker conjugate, oligo linker (Table 6 entry 10)
[3] = tested on: […]{LYS(N3)} peptide-linker conjugate, oligo linker (Table 6 entry 8)
[4] = tested on: […]{LYS(N3)} peptide-linker conjugate, oligo linker (Table 6 entry 9)

For Y. pestis proline iminopeptidase, the “Cleaved by PIP” value [1] was “Yes”, the “Cleaved by PIP” value [2] was “No” and the “Cleaved by PIP” value [3] was “Yes”. The “Cleaved by PIP” value [4] was “Yes”.
